# From the supplement of paper PMC10567573
# B1: CASP6 (parent)
# chain: TCADRDNLTRRFSDLGFEVKCFND
# Variants of: B1
# Experiment: protein stability index of a GFP-peptide fusion (GPS, HEK-293T) (PSI 1-6); higher = more stable
# Settings: c terminus: a fixed tail appended
# 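Also: lentivirally expressed fusions sorted by FACS into six bins by GFP to DsRed ratio, PSI derived from sequencing read proportions per bin multiplied by bin number.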
row,Variant,protein stability index
1,TCCDRDNLTRRFSDLGFEVKCFND [A3C],2.84
2,TCDDRDNLTRRFSDLGFEVKCFND [A3D],3.96
3,TCEDRDNLTRRFSDLGFEVKCFND [A3E],3.65
4,TCFDRDNLTRRFSDLGFEVKCFND [A3F],2.52
5,TCGDRDNLTRRFSDLGFEVKCFND [A3G],3.38
6,TCHDRDNLTRRFSDLGFEVKCFND [A3H],2.98
7,TCIDRDNLTRRFSDLGFEVKCFND [A3I],3.21
8,TCKDRDNLTRRFSDLGFEVKCFND [A3K],3.7
9,TCLDRDNLTRRFSDLGFEVKCFND [A3L],3.14
10,TCMDRDNLTRRFSDLGFEVKCFND [A3M],3.45
11,TCNDRDNLTRRFSDLGFEVKCFND [A3N],3.38
12,TCPDRDNLTRRFSDLGFEVKCFND [A3P],4.03
13,TCQDRDNLTRRFSDLGFEVKCFND [A3Q],4.01
14,TCRDRDNLTRRFSDLGFEVKCFND [A3R],2.97
15,TCSDRDNLTRRFSDLGFEVKCFND [A3S],3.64
16,TCTDRDNLTRRFSDLGFEVKCFND [A3T],3.63
17,TCVDRDNLTRRFSDLGFEVKCFND [A3V],3.52
18,TCWDRDNLTRRFSDLGFEVKCFND [A3W],3.21
19,TCYDRDNLTRRFSDLGFEVKCFND [A3Y],2.9
20,TCAARDNLTRRFSDLGFEVKCFND [D4A],2.61
21,TCACRDNLTRRFSDLGFEVKCFND [D4C],1.58
22,TCAERDNLTRRFSDLGFEVKCFND [D4E],3.74
23,TCAFRDNLTRRFSDLGFEVKCFND [D4F],2.78
24,TCAGRDNLTRRFSDLGFEVKCFND [D4G],3.28

row,Variant,protein stability index
1,TCAHRDNLTRRFSDLGFEVKCFND [D4H],2.96
2,TCAIRDNLTRRFSDLGFEVKCFND [D4I],2.24
3,TCAKRDNLTRRFSDLGFEVKCFND [D4K],3.37
4,TCALRDNLTRRFSDLGFEVKCFND [D4L],2.21
5,TCAMRDNLTRRFSDLGFEVKCFND [D4M],2.08
6,TCANRDNLTRRFSDLGFEVKCFND [D4N],3.17
7,TCAPRDNLTRRFSDLGFEVKCFND [D4P],2.75
8,TCAQRDNLTRRFSDLGFEVKCFND [D4Q],3.36
9,TCARRDNLTRRFSDLGFEVKCFND [D4R],2.95
10,TCASRDNLTRRFSDLGFEVKCFND [D4S],3.02
11,TCATRDNLTRRFSDLGFEVKCFND [D4T],2.64
12,TCAVRDNLTRRFSDLGFEVKCFND [D4V],3.05
13,TCAWRDNLTRRFSDLGFEVKCFND [D4W],3.54
14,TCAYRDNLTRRFSDLGFEVKCFND [D4Y],2.44
15,TCADADNLTRRFSDLGFEVKCFND [R5A],4.37
16,TCADCDNLTRRFSDLGFEVKCFND [R5C],2.65
17,TCADDDNLTRRFSDLGFEVKCFND [R5D],4.21
18,TCADEDNLTRRFSDLGFEVKCFND [R5E],3.58
19,TCADFDNLTRRFSDLGFEVKCFND [R5F],2.43
20,TCADGDNLTRRFSDLGFEVKCFND [R5G],3.64
21,TCADHDNLTRRFSDLGFEVKCFND [R5H],2.86
22,TCADIDNLTRRFSDLGFEVKCFND [R5I],2.71
23,TCADKDNLTRRFSDLGFEVKCFND [R5K],3.77
24,TCADLDNLTRRFSDLGFEVKCFND [R5L],3.5

row,Variant,protein stability index
1,TCADMDNLTRRFSDLGFEVKCFND [R5M],3.6
2,TCADNDNLTRRFSDLGFEVKCFND [R5N],3.33
3,TCADPDNLTRRFSDLGFEVKCFND [R5P],3.98
4,TCADQDNLTRRFSDLGFEVKCFND [R5Q],3.44
5,TCADSDNLTRRFSDLGFEVKCFND [R5S],3.8
6,TCADTDNLTRRFSDLGFEVKCFND [R5T],3.48
7,TCADVDNLTRRFSDLGFEVKCFND [R5V],3.5
8,TCADWDNLTRRFSDLGFEVKCFND [R5W],2.62
9,TCADYDNLTRRFSDLGFEVKCFND [R5Y],2.92
10,TCADRANLTRRFSDLGFEVKCFND [D6A],2.76
11,TCADRCNLTRRFSDLGFEVKCFND [D6C],2.43
12,TCADRENLTRRFSDLGFEVKCFND [D6E],3.56
13,TCADRFNLTRRFSDLGFEVKCFND [D6F],2.51
14,TCADRGNLTRRFSDLGFEVKCFND [D6G],3.47
15,TCADRHNLTRRFSDLGFEVKCFND [D6H],3.08
16,TCADRINLTRRFSDLGFEVKCFND [D6I],2.96
17,TCADRKNLTRRFSDLGFEVKCFND [D6K],2.75
18,TCADRLNLTRRFSDLGFEVKCFND [D6L],3.06
19,TCADRMNLTRRFSDLGFEVKCFND [D6M],3.09
20,TCADRNNLTRRFSDLGFEVKCFND [D6N],2.29
21,TCADRPNLTRRFSDLGFEVKCFND [D6P],3.68
22,TCADRQNLTRRFSDLGFEVKCFND [D6Q],3.44
23,TCADRRNLTRRFSDLGFEVKCFND [D6R],3.16
24,TCADRSNLTRRFSDLGFEVKCFND [D6S],3.01

row,Variant,protein stability index
1,TCADRTNLTRRFSDLGFEVKCFND [D6T],3.2
2,TCADRVNLTRRFSDLGFEVKCFND [D6V],2.38
3,TCADRWNLTRRFSDLGFEVKCFND [D6W],2.09
4,TCADRYNLTRRFSDLGFEVKCFND [D6Y],2.44
5,TCADRDALTRRFSDLGFEVKCFND [N7A],2.89
6,TCADRDCLTRRFSDLGFEVKCFND [N7C],3.13
7,TCADRDDLTRRFSDLGFEVKCFND [N7D],3.41
8,TCADRDELTRRFSDLGFEVKCFND [N7E],3.55
9,TCADRDFLTRRFSDLGFEVKCFND [N7F],2.78
10,TCADRDGLTRRFSDLGFEVKCFND [N7G],3.71
11,TCADRDHLTRRFSDLGFEVKCFND [N7H],3.63
12,TCADRDILTRRFSDLGFEVKCFND [N7I],3.22
13,TCADRDKLTRRFSDLGFEVKCFND [N7K],3.06
14,TCADRDLLTRRFSDLGFEVKCFND [N7L],2.98
15,TCADRDMLTRRFSDLGFEVKCFND [N7M],3.35
16,TCADRDPLTRRFSDLGFEVKCFND [N7P],3.4
17,TCADRDQLTRRFSDLGFEVKCFND [N7Q],2.92
18,TCADRDRLTRRFSDLGFEVKCFND [N7R],2.98
19,TCADRDSLTRRFSDLGFEVKCFND [N7S],3.51
20,TCADRDTLTRRFSDLGFEVKCFND [N7T],3.52
21,TCADRDVLTRRFSDLGFEVKCFND [N7V],3.04
22,TCADRDWLTRRFSDLGFEVKCFND [N7W],2.52
